Test results from PMC6718625, “CryoEM structures of Arabidopsis DDR complexes involved in RNA-directed DNA methylation” (Nature Communications, 2019).

T1: DRD1 peptide 7 with C-terminal Strep II tag (Arabidopsis, UniProt Q9SIW2 45-99)
T1 construct: DRD1, Arabidopsis, region called peptide 7 in the N-terminal domain; source: E. coli Rosetta2 (DE3), pET21b, co-expressed with RDM1 and DMS3, purified as DDR′ complex (Strep Trap HP, Superdex 200); not shown: Strep II, C-terminal, kept
T1 sequence: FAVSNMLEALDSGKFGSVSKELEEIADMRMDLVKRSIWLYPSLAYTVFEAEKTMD

B1: 6xHis-RDM1 (natural protein, Arabidopsis)
chain: SSMTMELRPSGDSGSSDVDAEISDGFSPLDTSHRDVADEGSLLRRAEMYQDYMKQVPIPTNRGSLIPFTSWVGLSISMKQLYGQPLHYLTNVLLQRWDQSRFGTDSEEQRLDSIIHPTKAEATIWLVEEIHRLTPSHLHMALLWRSDPMYHSFIDPIFPEK
notes: RDM1, Arabidopsis; also called His tag-RDM1; source: E. coli Rosetta2 (DE3), pCDFDuet-1, co-expressed with DMS3; purified within the DR or DDR′ complex, or in lysate (pulldown); not shown: 6xHis, N-terminal, kept
B2: His-DMS3 WT (natural protein, Arabidopsis, UniProt Q94A79 1-420, looked up)
chain: MYPTGQQISFQTTPLNVQDPTRMMNLDQSSPVARNETQNGGGIAHAEFAMFNSKRLESDLEAMGNKIKQHEDNLKFLKSQKNKMDEAIVDLQVHMSKLNSSPTPRSENSDNSLQGEDINAQILRHENSAAGVLSLVETLHGAQASQLMLTKGVVGVVAKLGKVNDENLSQILSNYLGTRSMLAVVCRNYESVTALEAYDNHGNIDINAGLHCLGSSIGREIGDSFDAICLENLRPYVGQHIADDLQRRLDLLKPKLPNGECPPGFLGFAVNMIQIDPAYLLCVTSYGYGLRETLFYNLFSRLQVYKTRADMISALPCISDGAVSLDGGIIRKTGIFNLGNRDEVNVRFAKPTASRTMDNYSEAEKKMKELKWKKEKTLEDIKREQVLREHAVFNFGKKKEEFVRCLAQSSCTNQPMNTPR
notes: DMS3, Arabidopsis; also called recombinant DMS3 WT; source: E. coli Rosetta2 (DE3), pCDF-His-DMS3, purified (Ni-NTA agarose)
B3: DMS3 (recombinant, co-expressed with His-RDM1) (natural protein, Arabidopsis)
chain: YPTGQQISFQTTPLNVQDPTRMMNLDQSSPVARNETQNGGGIAHAEFAMFNSKRLESDLEAMGNKIKQHEDNLKFLKSQKNKMDEAIVDLQVHMSKLNSSPTPRSENSDNSLQGEDINAQILRHENSAAGVLSLVETLHGAQASQLMLTKGVVGVVAKLGKVNDENLSQILSNYLGTRSMLAVVCRNYESVTALEAYDNHGNIDINAGLHCLGSSIGREIGDSFDAICLENLRPYVGQHIADDLQRRLDLLKPKLPNGECPPGFLGFAVNMIQIDPAYLLCVTSYGYGLRETLFYNLFSRLQVYKTRADMISALPCISDGAVSLDGGIIRKTGIFNLGNRDEVNVRFAKPTASRTMDNYSEAEKKMKELKWKKEKTLEDIKREQVLREHAVFNFGKKKEEFVRCLAQSSCTNQPMNTPR
notes: DMS3, Arabidopsis; residues 1-42 and 410-420 are said not to be visible in the maps; DMS3h, DMS3hc1 and DMS3hc2 are conformational states of the same chain in the structures; also called DMS3 WT; DMS3h; source: E. coli Rosetta2 (DE3), pCDFDuet-1, co-expressed with His-RDM1; purified within the DR or DDR′ complex, or in lysate (pulldown)
B4: DR complex (DMS3-RDM1) (complex, Arabidopsis)
chain 1: B1 chain
chain 2: B3 chain
notes: RDM1, Arabidopsis; DMS3, Arabidopsis; residues 1-42 and 410-420 are said not to be visible in the maps; Stoichiometry 4 DMS3 : 2 RDM1 by cryo-EM; also called DMS3-RDM1 complex; source: E. coli Rosetta2 (DE3), co-expressed from pCDFDuet-1, purified (His Trap HP or, with DRD1 peptide 7, Strep Trap HP; Superdex 200); not shown: 6xHis, N-terminal, kept; copies: 2 + 4

How the values were obtained:
[1] = target: the molecule itself; test: cryo-EM structure; single-particle cryoEM of the purified DR complex, 3.6 Å
[2] = target: the molecule itself; test: SEC; His tag affinity-purified DMS3 WT or G339E on analytical Superdex 200 10/300 GL, 20 mM HEPES-KOH pH 7.5, 150 mM NaCl
6xHis-RDM1 = target: B1; test: cryo-EM structure; single-particle cryoEM of the purified DR complex, 3.6 Å; details: both partners purified
[3] = target: T1, DRD1 peptide 7 with C-terminal Strep II …; test: cryo-EM structure; single-particle cryoEM of the purified DDR′ complex (DRD1 peptide 7-DMS3-RDM1), 3.5 Å; details: both partners purified

Binder: B1
stoichiometry N [1]: 2

Binder: B2
binding result [2]: binds

Binder: B3
stoichiometry N (6xHis-RDM1): 2 DMS3 per RDM1 (4:2) | stoichiometry N [1]: 2

Binder: B4
stoichiometry N [3]: 1 peptide per DR complex
